Measured values reported in a protein production outcome set (Wang et al. 2014).

Test: label from the status in PepcDB records

Row | Sequence | protein production
1 | MYLLDTTSTAAISIYALLLTAYRSMQVLYARPIDGPAVAAEPVETRPLPAVDVIVPSFNEDPGILSACLASIADQDYPGELRVYVVDDGSRNREAIVRVRAFYSRDPRFSFILLPENVGKRKAQIAAIGQSSGDLVLNVDSDSTIAFDVVSKLASKMRDPEVGAVMGQLTASNSGDTWLTKLIDMEYWLACNEERAAQSRFGAVMCCCGPCAMYRRSALASLLDQYETQLFRGKPSDFGEDRHLTILMLKAGFRTEYVPDAIVATVVPDTLKPYLRQQLRWARSTFRDTFLALPLLRGLSPFLAFDAVGQNIGQLLLALSVVTGLAHLIMTATVPWWTILIIACMTIIRCSVVALHARQLRFLGFVLHTPINLFLILPLKAYALCTLSNSDWLSRYSAPEVPVSGGKQTPIQTSGRVTPDCTCSGE | failed
2 | MHFRLILSMIVVTHTAVVQVLIHMEWIADPSIWAGLVTLVVIELVLGIDNLVFIAILAEKLPPAQRDRARITGLMLAMVMRLLLLASISWLVTLTKPLIVFHDFSFSARDLIMLFGGLFLLFKATVELNERLEGKDSDNPTQRKGAKFWAVVAQIVVLDAIFSLDSVITAVGMVDHLAVMMAAVVIAISLMLMASKALTRFVNSHPTIVILCLSFLLMIGFSLIAEGFSFIIPKGYLYAAIGFSVMIEALNQLAQFNRRRFLSANMTLRQRTTEAVMNLLSGQKEKAELDADTASLVADQDQHPLFNPQERLMIERVLNLNQRSVSSIMTSRHDIERINLSAPEEEIRSLVEKNQHTRLVVTGGKDNEDLLGVVHVIDLLQQSLRQEPLDLQALVRQPLVFPEGLPLLSALEQFRQARTHFAFVVDEFGSVEGIVTLSDVMETIAGNLPNEVEEIDARHDIQHHQDGSWTVNGHMPLEDLVQYVPLPLDDKREYHTVAGLLMEYLQHVPQVGETIEIDGYTLRTLQVDSHRVQKVQIVPPVKQDELDYEV | failed
3 | FDASTLYVPEDFLNSCTPGMRKWWQIKSQNFDLVICYKVGKFYELYHMDALIGVSELGLVFMKGNWAHSGFPEIAFGRYSDSLVQKGYKVARVEQTETPEMMEARCRKMAHISKYDRVVRREICRIITKGTQTYSVLEGDPSENYSKYLLSLKEKEEDSSGHTRAYGVCFVDTSLGKFFIGQFSDDRHCSRFRTLVAHYPPVQVLFEKGNLSKETKTILKSSLSCSLQEGLIPGSQFWDASKTLRTLLEEEYFREKLSDGIGVMLPQVLKGMTSESDSIGLTPGEKSELALSALGGCVFYLKKCLIDQELLSMANFEEYIPLDSDTVSTTRSGAIFTKAYQRMVLDAVTLNNLEIFLNGTNGSTEGTLLERVDTCHTPFGKRLLKQWLCAPLCNHYAINDRLDAIEDLMVVPDKISEVV | failed
4 | MAKKRITLPQNFDELITAGDVEALKAVYDKCELTAHNGRYSLNTALHYGGVPDELVIWLVEQGLDVNTLDYYGRTPLYKHATLGRDTVKLLYELGGDIQKPDTYGSTPLHTAAGFFRPKIVSFLIEKDADVNAKNDMGRTPLAEALATCRNSNVVQAAEIAEMLIKAGAEVVPEMAERVEIIGKDFEFHRENFNKDSLAETEAGLEKLYALFDVKPAPKRKIHDGVSPIIVKTGSWKEQYDELWEMLIPSSGAAKTVQGEVIRITGRVQDELYRNGGVNWDKDYRNMLNSLPNHFASGTPLSEEELKETKELISNIRANGEDEEVITERLRELSVLWVLLNPTPILLGKTNYNR | failed
5 | MTAPGSVPLTVIGGFWGAGKTTLLNYLLKVQHSERVLVMVNDFGSINIDAELLDQGRHDRPGVVRLQNGCVCCSIGGDLMQAFLQVMSMPDRPDRIIVEASGVADPTRIAQIGRVSGGLSDEGVITLVDASAVRALAADKYVGDIVRQQILSADIVLLNKLDLSSDAEIVETRAWLRDLAPRTRVVSCIHGEVDAVSVLGIGAGKVAPDTAGGPVDVPVPDLRRASTRHADTFHSSTLATEHRFDRRRIEYALDALPQTVLRGKGFVELEGEATPALLQLCGSRWTLDPVSTPAPPAGTHLVFIATGGRGVPRFDAPSHFEQALASRDAASADTSNLEHHHHHH | failed
6 | MSVNESVNRIVGGSGVILAGTFLGMLLDILIKKVMTSHLSPADFGTYSLALTVISITGAVATLGLNEGVPRYIAFFRGRQEEQKVHELIISAILMGLIAGLLAILVSPSLFESLAGKGFDAQGQILSVVKILVFAIPFTILLNLTVAIYRGFDRTNVNMYFYNIIRPLSLLGFASAAVYFGASLKGVVFADLISMVFTFSIMSVYFVKKPPVKPEWKIKFSEPTRQLIRYSFPLLITATLLNLMSWIDTIMLGYFRPAEVVGVYNAVYPIVGFLSLVIASMGYVYVPVASKLWGLNKTQPVGSIYAVMTKWCFLLTFPIFALIFVYPEFLITKLYGAEYVGGTTALRILAMGFIANSYFGFNYHTLLASGDSDFLMRCSVASAGINAVVNFMLIPEYGMIGAAIGTAVSYASIEVSMTLRAWRKQKMHPFTSMYRKLTLVCVVMTATMLAAKIIIPLSGAAWEYAVFIIVYFAVIHYAKILDKDEISMVDEIRKNIRQNVSVHVPQAIKTLVP | failed
7 | MIQLRPCPKSYTRDQDKATTPAETVRRVRERLASLDISILAETRRVDVGRLGIPVFLSVCGADARAVMPTRKQMGKGASLEQAQASALMELMERYSFFTFWRDMPGMVEATWSEARNRFGDALIPVDEILHSVHDTLSPDDAVRALDLWRWKFFPATDITHGREVWLPLDWFKKLGEFNGSSAGNTEEESILQGSCELVERHVCCLIDRTQPELPTIDPASLDDPVLLELAAAFERNGIRLVLKDFSMGMPVPTVGAIAWDPATFPERSEIVYTAGTSSSPVKAAIRAVTEVAQLAGDFCTGACYEASGLSKYESLDDIAWLVAGPVVALDTLPSVETDDIRDELAALCDGLAATGHTLYSVSTMNPDVGVNTHYNIVPGFHFRERDRNASLGLFIGRILSEEADAGTALAGLSVLEELYPGAHFLPFFKGMLALRAESHHEAISFFEQAEPLQPEADSRGLAAFYGAYVRTLLTDWQGALPGLDRAVTECPEMKEYFNLRGVCHFKLGDYAQAAQNFAQVLHIDKGAVVDLANLGLCHKFMGDTEKAEELLSAALEIDPGLDFARRHLDEMRQP | failed
8 | MDMRSHEMIERRREDNGNNNGGVVISNIISTNIDDNCNGNNNNTRVSCNSQTLDHHQSKSPSSFSISAAAKPTVRYRECLKNHAASVGGSVHDGCGEFMPSGEEGTIEALRCAACDCHRNFHRKEMDGVGSSDLISHHRHHHYHHNQYGGGGGRRPPPPNMMLNPLMLPPPPNYQPIHHHKYGMSPPGGGGMVTPMSVAYGGGGGGAESSSEDLNLYGQSSGEGAGAAAGQMAFSMSSSKKRFRTKFTTDQKERMMDFAEKLGWRMNKQDEEELKRFCGEIGVKRQVFKVWMHNNKNNAKKPPTPTTTL | failed
9 | MNQTRVLLIFSWLTVATLLWMDWSKNKNETLEISASHNLGVDSNLELEHAVPQIHAGAVPLQKDSQLIAAAPKVPVINVTTDVLQLKLDGFSILAADLLRFPQSKDRGAKPIKLLTDDPNYPYSATTGWVSQSNSPVPNLSTFLPEQPDVSYKLANDQNRLVVPFIWTAANGVSIRRTFTFERGRYAILIRDEIRNSGETPWNAYVFRKLSRVPIPNILNRAMTNPDSFSFNGAVWYSEKGGYERRAFKDYMNDGGLNREIGGGWIALLQHHFFTAWIPQKDQASLYLLAQNGSRDIAELRGPAFTVAPGQTTTTEARLWVGPKLVEQITKEHVKGLDRVVDYSRFQLMALIGQGLFWILSHLNSLLHNWGWAIVGLVVLLRIAMYPLSASQYKSAAKMRKFQPRLQQLKERYGEDRQKFQQAMMELYKKEKINPMGGCFPILIQMPIFFALYWVLVESVELRQAPWLGWIQDLTTRDPYFILPLLNIVIMWATQKLTPTPAGMDPIAGKMMQVMPLIFGVMMAFVPSGLALYWVINGGLNLLIQWWMIRQHADFSRKRSRENIK | failed
10 | PVPATPILQLEECCTHNNSATLSWKQPPLSTVPADGYILELDDGNGGQFREVYVGKETMCTVDGLHFNSTYNARVKAFNKTGVSPYSKTLVLQTSEG | not failed
11 | MEHKKALFCIFAIIHLFFWIIFSSLNHFKLDTFLSYEIAFFSVLLIIFASYLNYKKVIIKKSKNYEKDFNFISSLFIKKKQNLSKIIHFKVLKDDLKPNVKEKIHFFAMFFTLFKLMAYVVLVAGFLFLHRQDKLDIFAYICGISSLLVCVFIFILYIKKYESKKNY | failed
12 | MDARFLYPLESCKIIHLLRHGQALHNVEAEKDRNALLSPHLFDAPLTDHGHQQVENLRERVVSSGLLKRVELVVTSPLFRTMQTAVGVFGNEYKQSSMTSSPPILALEVARDRNGVRPPDMRRNVSEYQTLFPTIDFSQIESEEDNLWRPDVRESEEEILARGLEFMKWLWKRPEKEVAVVSHGIVLQHMLYVFANDCDLSIRHELCKRFANCEIRTVVIVDKGMASSTEN | failed
13 | MSDSDAMTDPNAVSYSNAIVVLCTAPDEASAQNLAAQVLGEKLAACVTLLPGATSLYYWEGKLEQEYEVQLLFKSNTDHQQALLTYIKQHHPYQTPELLVLPVRDGDKDYLSWLNASLL | failed
14 | MKPRRKSALLWGAVAALSFLVLHQGYLLAGGAFLGVGPVAAVTVAVFVGGAAVSYYAEGRFGLFGWRR | failed
15 | MATIYLVRHGQASFGKENYDQLSPRGWEQGRILGRWLAGKVEPGAVFGGNLQRHRETVEAITTGYGVSLPDMQVLEGLNEFDHLEVVERLRPEWADKQVMARDLASFPKPAKAFQQAFEKAVARWVSGDYDHEYTETWIDFRQRVGAALDELIELAGGADVIVSTSGGPIAVIAQHLLELSDRKALEMNNVIANTSVSRILYSGPRRSLAVFNNYSHLEAEDPALVTFR | failed
16 | MNMDISKAAIVTGGSRGIGRAIAARLAADGFAVVVNYAGNGAKAHETVAAIESAGGKAIAIQGDVGKPQDVANLFAQARAAFGRIDVVVNSAGVMPMASIDVANLDAFDQVIATNLRGAFLVLAQAAANLGDDGRIIALSTSVIAKSLPGYGPYIASKAGVEGLVHVLANELRGRNITVNAIAPGPVGTDLFFNGKSEEAVASIARQAPMERIGMPDEIAAAVSFLAGPDGRWVNAQVLRVNGGFA | failed
17 | MRAPGALLARMSRLLLLLLLKVSASSALGVAPASRNETCLGESCAPTVIQRRGRDAWGPGNSARDVLRARAPREEQGAAFLAGPSWDLPAAPGRDPAAGRGAEASAAGPPGPPTRPPGPWRWKGARGQEPSETLGRGNPTALQLFLQISEEEEKGPRGAGISGRSQEQSVKTVPGASDLFYWPRRAGKLQGSHHKPLSKTANGLAGHEGWTIALPGRALAQNGSLGEGIHEPGGPRRGNSTNRRVRLKNPFYPLTQESYGAYAVMCLSVVIFGTGIIGNLAVMCIVCHNYYMRSISNSLLANLAFWDFLIIFFCLPLVIFHELTKKWLLEDFSCKIVPYIEVASLGVTTFTLCALCIDRFRAATNVQMYYEMIENCSSTTAKLAVIWVGALLLALPEVVLRQLSKEDLGFSGRAPAERCIIKISPDLPDTIYVLALTYDSARLWWYFGCYFCLPTLFTITCSLVTARKIRKAEKACTRGNKRQIQLESQMNCTVVALTILYGFCIIPENICNIVTAYMATGVSQQTMDLLNIISQFLLFFKSCVTPVLLFCLCKPFSRAFMECCCCCCEECIQKSSTVTSDDNDNEYTTELELSPFSTIRREMSTFASVGTHC | failed
18 | MDRMWSPWRSAYVSEANDREPTDDESIFTALLREERDEENLILWRGEHVFVIMNRHPYNSGHLLILPYREVTQYDALNAPEQQALTAALDRCMGWLREAVSPDGFNVGMNLGRAAGAGIPDHLHAHVVPRWDGDTNFMATTANTKVLPEDLQTTYGKLRAAMAPDARDTTKPAAQKPSE | failed
19 | MLHFQHTSIINAPPEVVWKFHERPDILQLLTPPWQPVRVVRREGGLEVGAITEFKLFLGPVPLTWLARHTECDKYRLFTDTQISGPFESWIHRHQFQPENGKTKLIDDVSYVMPGGETIEFIGGWLIQAQLEAMFRYRHYVTKRECE | failed
20 | MSTRSMSAPANATVADVAAGDAIRSLDPSIRAVWAIKMAAFSMFLFLPALFYDLTHLFSPDSWLPFGVLSGTVLVGGVLYCVAWPRLRYRAWGFVLRPEELYMEHGVLQHVRTIVPLRRIQHVDVSQDLIEREFALGRLVVHTAGSRSSDVVIPGLPLSEAETIRDKIKRFILEDPLTEEPV | failed
